B1: Anti-factor Bb mouse monoclonal antibody (antibody, V domains shown)
VH: EVQLVESGGALVKPGGSLKLSCAASGFTFSNYAMSWVRQTPEKRLEWVATISNRGSYTYYPDSVKGRFTISRDNAKNTLYLQMSSLRSEDTALYYCARERPMDYWGQGTSVTVSS
VL: DIVMTQSHKFMSTSVGDRVSITCKASQDVGTAVAWYQQKPGQSPKLLIYWASTRHTGVPDRFTGSGSGTDFTLTITNVQSEDLAVYFCHQHSSNPLTFGAGTKLELK
B2: VH7/Vκ7 (antibody, V domains shown)
VH: EVQLVESGGGLVKPGGSLRLSCAASGFTFSNYAMSWVRQTPEKRLEWVATISNRGSYTYYPDSVKGRFTISRDNAKNSLYLQMNSLRAEDTALYYCARERPMDYWGQGTLVTVSS
VL: DIQMTQSPSTLSASVGDRVTITCKASQDVGTAVAWYQQKPGKAPKLLIYWASTRHTGVPDRFSGSGSGTDFTLTISSLQAEDFAVYFCHQHSSNPLTFGQGTKLEIK
B3: VH6/Vκ6 (antibody, V domains shown)
VH: EVQLVESGGGLVKPGGSLRLSCAASGFTFSNYAMSWVRQAPGKRLEWVATISNRGSYTYYPDSVKGRFTISRDNAKNSLYLQMNSLRAEDTALYYCARERPMDYWGQGTLVTVSS
VL: DIVMTQSPSFLSASVGDRVTITCKASQDVGTAVAWYQQKPGKAPKLLIYWASTRHTGVPDRFTGSGSGTDFTLTISSLQSEDFAVYFCHQHSSNPLTFGQGTKLEIK
B4: VH4/Vκ7 (antibody, V domains shown)
VH: EVQLVESGGGLVKPGGSLRLSCAASGFTFSNYAMSWVRQAPGKRLEWVATISNRGSYTYYPDSVKGRFTISRDNAKNSLYLQMSSLRSEDTALYYCARERPMDYWGQGTSVTVSS
VL: DIQMTQSPSTLSASVGDRVTITCKASQDVGTAVAWYQQKPGKAPKLLIYWASTRHTGVPDRFSGSGSGTDFTLTISSLQAEDFAVYFCHQHSSNPLTFGQGTKLEIK

This assay deals with cynomolgus monkey factor Bb (cynomolgus monkey). The experiment in a line: BLI Octet, biotinylated antibody on SA biosensors. (In general: BLI is a label-free optical method that tracks binding on a fibre tip over time.)
Turning to B1, the Kd (as a rule, the constant that tells how readily two partners part at equilibrium) came out at 11 nM.

The molecule B2 showed a Kd of 16 nM.

Regarding B3, the Kd is 11 nM.

Turning to B4, the Kd was 11 nM.

These data come from patent US20210332115A1.
